Source: paper PMC8249747

Molecular target: T1, QseA (YhcS, AaeR) (Escherichia coli K-12 W3110 type-A) (UniProt P67662)
T1 sequence: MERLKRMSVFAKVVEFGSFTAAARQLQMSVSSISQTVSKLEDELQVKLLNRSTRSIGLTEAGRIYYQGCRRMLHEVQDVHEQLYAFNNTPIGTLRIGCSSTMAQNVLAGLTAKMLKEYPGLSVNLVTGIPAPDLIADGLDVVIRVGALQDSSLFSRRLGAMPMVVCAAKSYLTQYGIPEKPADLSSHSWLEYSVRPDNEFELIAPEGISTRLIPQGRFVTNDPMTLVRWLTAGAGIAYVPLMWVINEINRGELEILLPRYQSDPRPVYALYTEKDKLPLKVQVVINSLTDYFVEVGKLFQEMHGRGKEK
Experiment: EMSA
Conditions: EMSA: gel shift buffer (composition not given), 37 C 30 min, PAGE, GelRed, footprinting: 1.0 pmol FITC probe, 25 C 30 min, 5 ng …

Sequence: GCGTTTTAGTCGTTCCATTATTCACTCTGACTTAAAAGTGATTTAGATCACATAATATAGATAACAGCATAACAGTTACGCTAATATATTAAATATCAATCTACAGCAATGTTGCTCTCGCCCGGCTTTCCATGCCCTTCTCTGCGGCGACAGATGCTGAAAATAATAACGCCTGCTCTCTCTTTACAACCAAGGTCAACATGAGTCTGTTTCCCGTTAT (double strand) [aaeX/qseA spacer probe (gel shift)]
- binding: binds
